Test [1] has as its target unmodified and H2BK120ub nucleosomes. Put plainly: FRET or BRET.
The target in test [2] is Alexa Fluor 488-labeled H2BK120ub nucleosome, H2A(L65C), H3K79Nle (UniProt P0CG47). Put plainly: other fluorescence titration.
Test [3] deals with unmodified nucleosome, H3K79Nle, Alexa Fluor 488 on H2A(L65C) (human) (UniProt P62807). Put plainly: FRET or BRET. For orientation: Bioluminescence resonance energy transfer reports proximity on the nanometre scale.

In general, Kd refers to a measure of binding affinity in units of concentration. A high value points to weaker binding. “Atto647N-labeled DOT1Lcat(C45A, C75A, C179A, N324C) (from UniProt Q8TEK3 1-416) (domain or fragment)”: the Kd in test [1] was in the range of 32 to 36 nM. In turn, “DOT1Lcat (human DOT1L residues 1–416) (from UniProt Q8TEK3 1-416) (domain or fragment)” came in with a Kd in test [2] of 120 nM. “DOT1Lcat(F326A, C45A, C75A, C179A, N324C), Atto647N-labeled (from UniProt Q8TEK3 1-416) (domain or fragment)” showed a dissociation constant (Kd) in test [3] of 38 nM.

(Values after PMC8919193.)
